{"source": "patent US20160053258", "proteins": {"B1": {"name": "recombinant full-length SET7/9 expressed in bacteria (protein)", "chain": "MDSDDEMVEEAVEGHLDDDGLPHGFCTVTYSSTDRFEGNFVHGEKNGRGKFFFFDGSTLEGYYVDDALQGQGVYTYEDGGVLQGTYVDGELNGPAQEYDTDGRLIFKGQYKDNIRHGVCWIYYPDGGSLVGEVNEDGEMTGEKIAYVYPDERTALYGKFIDGEMIEGKLATLMSTEEGRPHFELMPGNSVYHFDKSTSSCISTNALLPDPYESERVYVAESLISSAGEGLFSKVAVGPNTVMSFYNGVRITHQEVDSRDWALNGNTLSLDEETVIDVPEPYNHVSKYCASLGHKANHSFTPNCIYDMFVHPRFGPIKCIRTLRAVEADEELTVAYGYDHSPPGKSGPEAPEWYQVELKAFQATQQK"}}, "key": {"[1]": {"target": "T1, full-length 6×HIS-LIN28B, Q6ZN17", "T1 chain": "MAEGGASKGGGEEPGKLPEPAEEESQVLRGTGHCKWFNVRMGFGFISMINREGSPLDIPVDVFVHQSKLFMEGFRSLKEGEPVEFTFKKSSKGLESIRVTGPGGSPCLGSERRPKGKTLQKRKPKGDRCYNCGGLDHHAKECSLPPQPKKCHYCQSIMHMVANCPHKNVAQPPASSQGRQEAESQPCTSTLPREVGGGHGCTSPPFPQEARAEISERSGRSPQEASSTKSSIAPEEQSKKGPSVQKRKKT"}, "[2]": {"target": "T2, 6×HIS-LIN28A (1-124), Q9H9Z2", "T2 chain": "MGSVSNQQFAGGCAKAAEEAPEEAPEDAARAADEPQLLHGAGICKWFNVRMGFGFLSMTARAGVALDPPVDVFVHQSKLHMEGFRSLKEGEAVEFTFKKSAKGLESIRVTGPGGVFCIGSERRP"}, "[3]": {"target": "T3, 6×HIS-LIN28A-K135R, Q9H9Z2", "T3 chain": "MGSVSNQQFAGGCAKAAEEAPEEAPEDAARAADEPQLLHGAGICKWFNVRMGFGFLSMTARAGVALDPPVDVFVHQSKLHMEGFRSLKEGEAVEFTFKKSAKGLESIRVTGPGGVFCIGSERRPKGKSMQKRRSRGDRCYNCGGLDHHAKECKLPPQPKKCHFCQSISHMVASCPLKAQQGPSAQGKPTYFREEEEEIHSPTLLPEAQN"}, "[4]": {"target": "T4, 6×HIS-LIN28A (125-209), Q9H9Z2", "T4 chain": "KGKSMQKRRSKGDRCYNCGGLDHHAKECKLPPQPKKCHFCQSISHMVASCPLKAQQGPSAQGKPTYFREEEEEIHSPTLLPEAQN"}, "[5]": {"target": "T5, 6×HIS-LIN28A (157-209), Q9H9Z2", "T5 chain": "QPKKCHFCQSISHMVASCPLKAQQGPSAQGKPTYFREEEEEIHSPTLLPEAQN"}, "[6]": {"target": "T6, 6×HIS-LIN28A (125-156), Q9H9Z2", "T6 chain": "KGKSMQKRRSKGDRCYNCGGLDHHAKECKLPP"}, "[7]": {"target": "T7, 6×HIS-labeled human LIN28A (full-length), Q9H9Z2", "T7 chain": "T3 chain with R135K"}}, "note": "Changes are numbered by the printed parent chain.", "data": [{"protein": "B1", "values": [{"measurement": "methylation (in vitro methyl transferase analysis)", "setting": "[1]", "result": "LIN28B was not methylated by SET7/9"}, {"measurement": "methylation (in vitro methyl transferase assay)", "setting": "[2]", "result": "LIN28A (1-124) and (157-209) without lysine 135 were not methylated"}, {"measurement": "methylation (in vitro methyl transferase assay)", "setting": "[3]", "result": "a methylation reaction by SET7/9 was completely removed in K135 mutant"}, {"measurement": "methylation (in vitro methyl transferase assay)", "setting": "[4]", "result": "only LIN28A (125-209) and (125-156) having lysine 135 among 4 fragments were methylated by SET7/9"}, {"measurement": "methylation (in vitro methyl transferase assay)", "setting": "[5]", "result": "LIN28A (1-124) and (157-209) without lysine 135 were not methylated"}, {"measurement": "methylation (in vitro methyl transferase assay)", "setting": "[6]", "result": "only LIN28A (125-209) and (125-156) having lysine 135 among 4 fragments were methylated by SET7/9"}, {"measurement": "enzyme activity (in vitro methyltransferase assay with [3H] SAM)", "setting": "[7]", "result": "all HMTases except for SET7/9 did not show enzyme activity with respect to LIN28A"}, {"measurement": "methylation (in vitro methyltransferase assay with [3H] SAM)", "setting": "[7]", "result": "LIN28A was methylated by SET7/9 in vitro"}]}]}
